The target of experiment [1] is human MIC-1 receptor (hGFRAL, GDNF family receptor alpha like) (human) (UniProt Q6UXV0). Nature of the experiment: cell-based or functional assay.
For experiment [2], the target named is T1, human MIC-1 receptor (hGFRAL, GDNF family receptor alpha like) (human, UniProt Q6UXV0 19-394).
T1 sequence (looked up): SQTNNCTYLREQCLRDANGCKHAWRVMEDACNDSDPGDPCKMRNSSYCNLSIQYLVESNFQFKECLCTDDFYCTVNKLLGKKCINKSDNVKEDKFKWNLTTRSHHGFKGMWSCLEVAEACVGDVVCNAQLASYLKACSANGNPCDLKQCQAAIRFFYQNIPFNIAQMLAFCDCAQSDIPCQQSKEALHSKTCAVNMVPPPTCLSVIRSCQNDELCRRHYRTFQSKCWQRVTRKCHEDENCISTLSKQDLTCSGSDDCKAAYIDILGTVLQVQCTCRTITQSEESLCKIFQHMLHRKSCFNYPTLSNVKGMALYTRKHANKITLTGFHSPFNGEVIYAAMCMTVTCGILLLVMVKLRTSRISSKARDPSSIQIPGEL
The experiment can be described thus: cell-based or functional assay.

Substitutions are numbered along the chain they refer to. Names and notes keep the numbering of the source.

In experiment [1], “HSA-GGSSSGS (SEQ ID NO: 152)-MIC-1 (SEQ ID NO: 1) (from UniProt Q99988 197-308) (ligand)” returned a pERK EC50 (nM) of 3.6 nM.

B1: (SEPATSGSETPG)2-MIC-1-Δ1-3(M86L) (ligand)
chain: SEPATSGSETPGSEPATSGSETPGGDHCPLGPGRCCRLHTVRASLEDLGWADWVLSPREVQVTMCIGACPSQFRAANMHAQIKTSLHRLKPDTVPAPCCVPASYNPLVLIQKTDTGVSLQTYDDLLAKDCHCI
For B1, in experiment [2], the “pERK EC50 (nM)” value was 0.4 nM and the “pERK Emax (%)” value amounted to 100%.

B2: (SEPATSGSETPG)2-MIC-1-Δ1-3(M57L, M86L) (ligand)
chain: B1 chain with M78L
As to B2, in experiment [2], the “pERK EC50 (nM)” value came out at 0.4 nM and the “pERK Emax (%)” value turned out to be 100%.

Source of the values: US12006344 (Novo Nordisk, dated 2024).
